Patent US20170189519A1

Columns and labels:
Details in all cases: remark: other sources report otherwise
[1] = target: 220C9 (influenza A H1N1 A/Brisbane/59/2007); experiment: ELISA, coated CR6261, P. pastoris medium
[2] = target: 138F11 (influenza A H1N1 A/Brisbane/59/2007); experiment: ELISA, coated CR6261, P. pastoris medium
[3] = target: 301F11 (influenza A H1N1 A/Brisbane/59/2007); experiment: ELISA, coated CR6261, P. pastoris medium
[4] = target: 24782 (influenza A H1N1 A/Brisbane/59/2007); experiment: ELISA, coated CR6261, P. pastoris medium
[5] = target: 304G11 (influenza A H1N1 A/Brisbane/59/2007); experiment: ELISA, coated CR6261, P. pastoris medium
[6] = target: 134A4 (influenza A H1N1 A/Brisbane/59/2007); experiment: ELISA, coated CR6261, P. pastoris medium
[7] = target: 204C5 (influenza A H1N1 A/Brisbane/59/2007); experiment: ELISA, coated CR6261, P. pastoris medium
[8] = target: 264G4 (influenza A H1N1 A/Brisbane/59/2007); experiment: ELISA, coated CR6261, P. pastoris medium
[9] = target: 137C11 (influenza A H1N1 A/Brisbane/59/2007); experiment: ELISA, coated CR6261, P. pastoris medium
[10] = target: 171F6 (influenza A H1N1 A/Brisbane/59/2007); experiment: ELISA, coated CR6261, P. pastoris medium
[11] = target: 182C6 (influenza A H1N1 A/Brisbane/59/2007); experiment: ELISA, coated CR6261, P. pastoris medium
[12] = target: 13185 (influenza A H1N1 A/Brisbane/59/2007); experiment: ELISA, coated CR6261, P. pastoris medium
[13] = target: 145E7 (influenza A H1N1 A/Brisbane/59/2007); experiment: ELISA, coated CR6261, P. pastoris medium
[14] = target: 176A5 (influenza A H1N1 A/Brisbane/59/2007); experiment: ELISA, coated CR6261, P. pastoris medium
[15] = target: 181H9 (influenza A H1N1 A/Brisbane/59/2007); experiment: ELISA, coated CR6261, P. pastoris medium
[16] = target: 188F4 (influenza A H1N1 A/Brisbane/59/2007); experiment: ELISA, coated CR6261, P. pastoris medium
[17] = target: 234C5 (influenza A H1N1 A/Brisbane/59/2007); experiment: ELISA, coated CR6261, P. pastoris medium
[18] = target: 187H10 (influenza A H1N1 A/Brisbane/59/2007); experiment: ELISA, coated CR6261, P. pastoris medium
[19] = target: 145F2 (influenza A H1N1 A/Brisbane/59/2007); experiment: ELISA, coated CR6261, P. pastoris medium
[20] = target: 18987 (influenza A H1N1 A/Brisbane/59/2007); experiment: ELISA, coated CR6261, P. pastoris medium
[21] = target: 126C3 (influenza A H1N1 A/Brisbane/59/2007); experiment: ELISA, coated CR6261, P. pastoris medium
[22] = target: 131D5 (influenza A H1N1 A/Brisbane/59/2007); experiment: ELISA, coated CR6261, P. pastoris medium
[23] = target: 233F11 (influenza A H1N1 A/Brisbane/59/2007); experiment: ELISA, coated CR6261, P. pastoris medium
[24] = target: 199F3 (influenza A H1N1 A/Brisbane/59/2007); experiment: ELISA, coated CR6261, P. pastoris medium
[25] = target: 182D3 (influenza A H1N1 A/Brisbane/59/2007); experiment: ELISA, coated CR6261, P. pastoris medium
[26] = target: 182H2 (influenza A H1N1 A/Brisbane/59/2007); experiment: ELISA, coated CR6261, P. pastoris medium
[27] = target: 245C9 (influenza A H1N1 A/Brisbane/59/2007); experiment: ELISA, coated CR6261, P. pastoris medium
[28] = target: 244B8 (influenza A H1N1 A/Brisbane/59/2007); experiment: ELISA, coated CR6261, P. pastoris medium
[29] = target: 191D5 (influenza A H1N1 A/Brisbane/59/2007); experiment: ELISA, coated CR6261, P. pastoris medium
[30] = target: 112F3 (influenza A H1N1 A/Brisbane/59/2007); experiment: ELISA, coated CR6261, P. pastoris medium
[31] = target: 182G8 (influenza A H1N1 A/Brisbane/59/2007); experiment: ELISA, coated CR6261, P. pastoris medium
[32] = target: 272H2 (influenza A H1N1 A/Brisbane/59/2007); experiment: ELISA, coated CR6261, P. pastoris medium
[33] = target: 213B2 (influenza A H1N1 A/Brisbane/59/2007); experiment: ELISA, coated CR6261, P. pastoris medium
[34] = target: Tex_s127H1-t2-cl18long (influenza A virus H1N1 A/Texas/UR06-0526/07)
[35] = target: NY_s127H1-t2-cl18long (influenza A virus H1N1 A/New York/629/95)

B1: CR6261 (antibody, V domains shown)
VH: EVQLVESGAEVKKPGSSVKVSCKASGGPFRSYAISWVRQAPGQGPEWMGGIIPIFGTTKYAPKFQGRVTITADDFAGTVYMELSSLRSEDTAMYYCAKHMGYQVRETMDVWGKGTTVTVSS
VL: QSVLTQPPSVSAAPGQKVTISCSGSSSNIGNDYVSWYQQLPGTAPKLLIYDNNKRPSGIPDRFSGSKSGTSATLGITGLQTGDEANYYCATWDRRPTAYVVFGGGTKLTVLG
- CR6261 binding signal [1]: 1.09e+06
- CR6261 binding signal [2]: 148000
- CR6261 binding signal [3]: 117000
- CR6261 binding signal [4]: 415000
- CR6261 binding signal [5]: 111000
- CR6261 binding signal [6]: 456000
- CR6261 binding signal [7]: 833000
- CR6261 binding signal [8]: 181000
- CR6261 binding signal [9]: 417000
- CR6261 binding signal [10]: 140000
- CR6261 binding signal [11]: 92900
- CR6261 binding signal [12]: 844000
- CR6261 binding signal [13]: 132000
- CR6261 binding signal [14]: 193000
- CR6261 binding signal [15]: 311000
- CR6261 binding signal [16]: 287000
- CR6261 binding signal [17]: 278000
- CR6261 binding signal [18]: 299000
- CR6261 binding signal [19]: 499000
- CR6261 binding signal [20]: 336000
- CR6261 binding signal [21]: 220000
- CR6261 binding signal [22]: 345000
- CR6261 binding signal [23]: 583000
- CR6261 binding signal [24]: 329000
- CR6261 binding signal [25]: 143000
- CR6261 binding signal [26]: 110000
- CR6261 binding signal [27]: 180000
- CR6261 binding signal [28]: 274000
- CR6261 binding signal [29]: 124000
- CR6261 binding signal [30]: 450000
- CR6261 binding signal [31]: 400000
- CR6261 binding signal [32]: 263000
- CR6261 binding signal [33]: 132000
- EC50 [34]: 0.369 µg/mL
- EC50 [35]: 0.455 µg/mL
